Results reported in the supplement of paper PMC9112550, “Optimization of the antimicrobial peptide Bac7 by deep mutational scanning” (BMC Biology, 2022).

The sequences below were run on Escherichia coli TOP10 (assay: shrunken log2 fold change of peptide-encoding DNA abundance (4.5 h post-induction vs induction); higher = less antimicrobial activity (less host growth inhibition)). Details: time post-induction: 4.5 h; library: site-saturation at positions 5, 18, 19, 20.
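Further: peptides expressed intracellularly from a pBAD plasmid library in pooled LB shake-flask culture, induced with 0.3% L-arabinose, DNA abundance read by NGS, three biological replicates, DESeq2 with apeglm shrinkage.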

| Sequence | shrunken log2 fold change |
| --- | --- |
| RRIRCRPPRLPRPRPRPWDSPRP | -0.36 |
| RRIRRRPPRLPRPRPRPYDTPRP | 0.0504 |
| RRIRNRPPRLPRPRPRPVKDPRP | -0.01 |
| RRIRPRPPRLPRPRPRPPLAPRP | 0.513 |
| RRIRLRPPRLPRPRPRPYVEPRP | -0.322 |
| RRIRYRPPRLPRPRPRPGGLPRP | 3.02 |
| RRIRVRPPRLPRPRPRPKGCPRP | 0.015 |
| RRIRPRPPRLPRPRPRPNHKPRP | -0.385 |
| RRIRNRPPRLPRPRPRPPKQPRP | 0.22 |
| RRIRLRPPRLPRPRPRPMISPRP | 0.00361 |
| RRIRARPPRLPRPRPRPHRKPRP | -0.000548 |
| RRIRCRPPRLPRPRPRPNWNPRP | -0.514 |
| RRIRNRPPRLPRPRPRPKDYPRP | -0.232 |
| RRIRPRPPRLPRPRPRPSNWPRP | -0.184 |
| RRIRDRPPRLPRPRPRPCDHPRP | -0.0216 |
| RRIRVRPPRLPRPRPRPDYKPRP | 0.105 |
| RRIRSRPPRLPRPRPRPYQVPRP | -0.0683 |
| RRIRERPPRLPRPRPRPPAPPRP | 0.569 |
| RRIRERPPRLPRPRPRPLDPPRP | -0.102 |
| RRIRMRPPRLPRPRPRPAKQPRP | 1.12 |
| RRIRSRPPRLPRPRPRPDQYPRP | -2.18 |
| RRIRHRPPRLPRPRPRPMWWPRP | 0.177 |
| RRIRTRPPRLPRPRPRPWNEPRP | 0.00902 |
| RRIRFRPPRLPRPRPRPEDQPRP | 0.502 |
| RRIRPRPPRLPRPRPRPEWTPRP | 0.22 |

| Sequence | shrunken log2 fold change |
| --- | --- |
| RRIRARPPRLPRPRPRPYPRPRP | 0.00693 |
| RRIRRRPPRLPRPRPRPWSTPRP | -0.0543 |
| RRIRQRPPRLPRPRPRPLDNPRP | -0.151 |
| RRIRSRPPRLPRPRPRPHCDPRP | -0.38 |
| RRIRDRPPRLPRPRPRPNSHPRP | 0.0526 |
| RRIRARPPRLPRPRPRPGGPPRP | 0.294 |
| RRIRCRPPRLPRPRPRPQPIPRP | -0.335 |
| RRIRERPPRLPRPRPRPHCCPRP | -0.0271 |
| RRIRDRPPRLPRPRPRPMFMPRP | 0.169 |
| RRIRKRPPRLPRPRPRPERTPRP | 0.772 |
| RRIRHRPPRLPRPRPRPYTQPRP | -0.711 |
| RRIRTRPPRLPRPRPRPLCMPRP | -0.385 |
| RRIRDRPPRLPRPRPRPQPEPRP | 0.106 |
| RRIRMRPPRLPRPRPRPVVTPRP | 0.0538 |
| RRIRNRPPRLPRPRPRPWLMPRP | -0.13 |
| RRIRLRPPRLPRPRPRPKTSPRP | 0.0111 |
| RRIRPRPPRLPRPRPRPLQPPRP | 0.273 |
| RRIRARPPRLPRPRPRPDYCPRP | -0.17 |
| RRIRVRPPRLPRPRPRPDWFPRP | -0.597 |
| RRIRVRPPRLPRPRPRPLVRPRP | 0.0251 |
| RRIRHRPPRLPRPRPRPQYAPRP | -0.00149 |
| RRIRGRPPRLPRPRPRPFKWPRP | -0.0584 |
| RRIRLRPPRLPRPRPRPYMAPRP | -0.608 |
| RRIRGRPPRLPRPRPRPENIPRP | 0.204 |
| RRIRFRPPRLPRPRPRPGTPPRP | 0.292 |

| Sequence | shrunken log2 fold change |
| --- | --- |
| RRIRVRPPRLPRPRPRPEYRPRP | -0.115 |
| RRIRARPPRLPRPRPRPCKSPRP | 0.0355 |
| RRIRARPPRLPRPRPRPWINPRP | -0.218 |
| RRIRRRPPRLPRPRPRPFWRPRP | 0.0251 |
| RRIRIRPPRLPRPRPRPACVPRP | 0.0215 |
| RRIRWRPPRLPRPRPRPSNPPRP | -0.218 |
| RRIRKRPPRLPRPRPRPMWEPRP | 0.214 |
| RRIRMRPPRLPRPRPRPDMIPRP | -0.00213 |
| RRIRDRPPRLPRPRPRPILRPRP | -0.0119 |
| RRIRMRPPRLPRPRPRPMCYPRP | 0.0406 |
| RRIRLRPPRLPRPRPRPNWDPRP | 0.14 |
| RRIRFRPPRLPRPRPRPKEMPRP | -0.0141 |
| RRIRTRPPRLPRPRPRPGNCPRP | 0.0747 |
| RRIRNRPPRLPRPRPRPKETPRP | -0.0238 |
| RRIRLRPPRLPRPRPRPFACPRP | 0.119 |
| RRIRGRPPRLPRPRPRPRNVPRP | 0.642 |
| RRIRHRPPRLPRPRPRPIVWPRP | -0.2 |
| RRIRHRPPRLPRPRPRPSYMPRP | -0.00144 |
| RRIRLRPPRLPRPRPRPVPLPRP | -0.174 |
| RRIRDRPPRLPRPRPRPWGTPRP | 0.0812 |
| RRIRSRPPRLPRPRPRPHVAPRP | -0.136 |
| RRIRHRPPRLPRPRPRPKPPPRP | 0.55 |
| RRIRTRPPRLPRPRPRPVRDPRP | 0.543 |
| RRIRIRPPRLPRPRPRPKSNPRP | -0.673 |
| RRIRVRPPRLPRPRPRPCMEPRP | -1 |

| Sequence | shrunken log2 fold change |
| --- | --- |
| RRIRRRPPRLPRPRPRPLRMPRP | 1.2 |
| RRIRPRPPRLPRPRPRPPENPRP | 0.365 |
| RRIRFRPPRLPRPRPRPWITPRP | -0.192 |
| RRIRPRPPRLPRPRPRPMTEPRP | -0.0153 |
| RRIRFRPPRLPRPRPRPHKGPRP | -0.0598 |
| RRIRFRPPRLPRPRPRPQMDPRP | 0.0317 |
| RRIRHRPPRLPRPRPRPCLWPRP | -0.0157 |
| RRIRERPPRLPRPRPRPVDSPRP | -0.0113 |
| RRIRRRPPRLPRPRPRPMTMPRP | 0.0735 |
| RRIRARPPRLPRPRPRPGVSPRP | 0.559 |
| RRIRYRPPRLPRPRPRPHMTPRP | -0.845 |
| RRIRLRPPRLPRPRPRPQSEPRP | -0.0331 |
| RRIRKRPPRLPRPRPRPLERPRP | 0.529 |
| RRIRMRPPRLPRPRPRPRGYPRP | 0.0597 |
| RRIRLRPPRLPRPRPRPIRLPRP | -0.3 |
| RRIRYRPPRLPRPRPRPLANPRP | -0.371 |
| RRIRDRPPRLPRPRPRPYVIPRP | -0.116 |
| RRIRFRPPRLPRPRPRPNKNPRP | -0.384 |
| RRIRPRPPRLPRPRPRPAFWPRP | 0.459 |
| RRIRRRPPRLPRPRPRPFCLPRP | 0.194 |
| RRIRPRPPRLPRPRPRPWSFPRP | -0.185 |
| RRIRIRPPRLPRPRPRPREYPRP | -0.565 |
| RRIRRRPPRLPRPRPRPLGKPRP | -0.017 |
| RRIRERPPRLPRPRPRPCQYPRP | -0.138 |
| RRIRRRPPRLPRPRPRPTIGPRP | -0.229 |

| Sequence | shrunken log2 fold change |
| --- | --- |
| RRIRMRPPRLPRPRPRPPLIPRP | 0.242 |
| RRIRCRPPRLPRPRPRPMKIPRP | 0.13 |
| RRIRPRPPRLPRPRPRPPAWPRP | 0.452 |
| RRIRDRPPRLPRPRPRPICLPRP | 0.0829 |
| RRIRWRPPRLPRPRPRPMGMPRP | 0.403 |
| RRIRIRPPRLPRPRPRPRFPPRP | 0.0241 |
| RRIRRRPPRLPRPRPRPSKQPRP | -0.118 |
| RRIRKRPPRLPRPRPRPAGRPRP | 0.432 |
| RRIRFRPPRLPRPRPRPQENPRP | 0.133 |
| RRIRQRPPRLPRPRPRPSDYPRP | -0.0346 |
| RRIRSRPPRLPRPRPRPMRPPRP | 0.787 |
| RRIRMRPPRLPRPRPRPQPCPRP | 0.376 |
| RRIRERPPRLPRPRPRPDIAPRP | -0.0321 |
| RRIRNRPPRLPRPRPRPHKIPRP | -0.657 |
| RRIRHRPPRLPRPRPRPFMIPRP | -0.341 |
| RRIRERPPRLPRPRPRPLKFPRP | -0.377 |
| RRIRFRPPRLPRPRPRPHMMPRP | -0.283 |
| RRIRPRPPRLPRPRPRPKFSPRP | -0.125 |
| RRIRCRPPRLPRPRPRPKRHPRP | 0.341 |
| RRIRLRPPRLPRPRPRPVGEPRP | 0.12 |
| RRIRMRPPRLPRPRPRPSCNPRP | 0.197 |
| RRIRDRPPRLPRPRPRPQGWPRP | 0.693 |
| RRIRCRPPRLPRPRPRPCIAPRP | -0.11 |
| RRIRERPPRLPRPRPRPTESPRP | 5.08 |
| RRIRGRPPRLPRPRPRPIKLPRP | 0.125 |

| Sequence | shrunken log2 fold change |
| --- | --- |
| RRIRHRPPRLPRPRPRPVVNPRP | 0.00319 |
| RRIRYRPPRLPRPRPRPHRRPRP | -0.0466 |
| RRIRQRPPRLPRPRPRPSNGPRP | -0.687 |
| RRIRNRPPRLPRPRPRPIKQPRP | -0.0298 |
| RRIRVRPPRLPRPRPRPYCLPRP | -0.564 |
| RRIRFRPPRLPRPRPRPCDGPRP | -0.0604 |
| RRIRARPPRLPRPRPRPLAQPRP | 0.578 |
| RRIRTRPPRLPRPRPRPIMDPRP | -0.233 |
| RRIRGRPPRLPRPRPRPPWTPRP | 0.68 |
| RRIRDRPPRLPRPRPRPYTGPRP | -1.03 |
| RRIRFRPPRLPRPRPRPDHAPRP | -0.102 |
| RRIRCRPPRLPRPRPRPVHDPRP | 0.141 |
| RRIRPRPPRLPRPRPRPCGGPRP | 0.224 |
| RRIRTRPPRLPRPRPRPENYPRP | -0.00973 |
| RRIRCRPPRLPRPRPRPSPQPRP | 0.445 |
| RRIRKRPPRLPRPRPRPHLPPRP | 0.0692 |
| RRIRCRPPRLPRPRPRPSGTPRP | -0.0132 |
| RRIRKRPPRLPRPRPRPPFGPRP | 0.715 |
| RRIRARPPRLPRPRPRPDRPPRP | 0.448 |
| RRIRNRPPRLPRPRPRPMIVPRP | -0.017 |
| RRIRTRPPRLPRPRPRPFANPRP | -0.116 |
| RRIRLRPPRLPRPRPRPALAPRP | 0.305 |
| RRIRVRPPRLPRPRPRPNGSPRP | 0.00532 |
| RRIRWRPPRLPRPRPRPILKPRP | -0.281 |
| RRIRERPPRLPRPRPRPGTEPRP | -0.049 |
